Measurements published in paper PMC6105367 (The FEBS journal, 2018).

Molecular target: the molecule itself
Experiment: negative-stain electron microscopy

B1: full-length zebrafish ASC, recombinant, His-NusA-GB1 tag cleaved off (natural protein, UniProt Q9I9N6 1-203, looked up)
chain: MAESFKEHLQEAFEDLGADNLRKFKSKLGDRRQEPRVTKSAIEKLKDEIDLADLMVGVFTSKDAVSVTVEILRAIKCNAVADDLLRNTGQSESKGALSDESKCASSKAVSKVAFSKVNFIDEHWKELIDRVNNVDPILDILRQKKVITNEDYCTIRNKETPQKKMRELLTGPITCAGNKGKEVLYDALRESNKFLMDDLEDAE
binding result: binds
